Results on 1 substance are retold here after article PMC8887629.

For this experiment, the target named is full-length human LRRK2 (leucine-rich repeat kinase 2) (human) (UniProt Q5S007). As to the kind of experiment: cryo-EM structure.

With “full-length human LRRK2 (leucine-rich repeat kinase 2) (from UniProt Q5S007 1-2527) (enzyme)”, the stoichiometry N (as a rule, a count of units in the complex or per binding partner) was 2.
